Measured values: PMC9930174 (2022)
Blank lines part the entries; values can stand above or below the binder they belong to.

How the values were obtained:
[1] = target: T1, α-myosin (MYH6) peptide on HLA-A*03:01 (human); experiment: multimer staining
T1 peptide: RINATLETK

[2] = target: T2, α-myosin (MYH6) peptide on HLA-A*24:02 (human); experiment: multimer staining
T2 peptide: RINATLETK

[3] = target: T3, α-myosin (MYH6) peptide on H-2Kb (mouse); experiment: activation reporter or marker
T3 peptide: VQQVYYSI

[4] = target: T4, α-myosin (MYH6) peptide on H-2Kb (mouse); experiment: activation reporter or marker
T4 peptide: VIQYFASI

binding result [1]: recognises
binding result [2]: no recognition
B1: TCR-Pt1 (TCR)
alpha TRAV19 TRAJ32 CDR3: CALSDRYGGATNKLIF
beta TRBV9 TRBJ2-6 CDR3: CASSPYQSSGANVLTF

binding result [3]: recognises
B2: TCR-C (TCR)
alpha TRAV6D-6 TRAJ39 CDR3: CALGDRNNAGAKLTF
beta TRBV12-2 TRBJ2-5 CDR3: CASSLGGTVQDTQYF

binding result [4]: recognises
B3: TCR-B (TCR)
alpha TRAV13-1 TRAJ22 CDR3: CALERASGSWQLIF
beta TRBV15 TRBJ2-7 CDR3: CASSLRRGEQYF
